B1: Segregation and condensation protein A (Bacillus subtilis), P35154 (parent)
chain: MEEYQVKIDTFEGPLDLLLHLINRLEIDIYDIPVAKITEQYLLYVHTMRVLELDIASEYLVMAATLLSIKSRMLLPKQEEELFEDELLEEEDPREELIEKLIEYRKYKDAAKDLKEREEERQKSFTKPPSDLSEYAKEVKQSEQKLSVTVYDMIGAFQKVLKRKKINRPMETTITRQDIPIEARMNEIVHSLKSRGTRINFMDLFPYEQKEHLVVTFLAVLELMKNQLVLIEQEHNFSDIYITGSESIHGA
partner: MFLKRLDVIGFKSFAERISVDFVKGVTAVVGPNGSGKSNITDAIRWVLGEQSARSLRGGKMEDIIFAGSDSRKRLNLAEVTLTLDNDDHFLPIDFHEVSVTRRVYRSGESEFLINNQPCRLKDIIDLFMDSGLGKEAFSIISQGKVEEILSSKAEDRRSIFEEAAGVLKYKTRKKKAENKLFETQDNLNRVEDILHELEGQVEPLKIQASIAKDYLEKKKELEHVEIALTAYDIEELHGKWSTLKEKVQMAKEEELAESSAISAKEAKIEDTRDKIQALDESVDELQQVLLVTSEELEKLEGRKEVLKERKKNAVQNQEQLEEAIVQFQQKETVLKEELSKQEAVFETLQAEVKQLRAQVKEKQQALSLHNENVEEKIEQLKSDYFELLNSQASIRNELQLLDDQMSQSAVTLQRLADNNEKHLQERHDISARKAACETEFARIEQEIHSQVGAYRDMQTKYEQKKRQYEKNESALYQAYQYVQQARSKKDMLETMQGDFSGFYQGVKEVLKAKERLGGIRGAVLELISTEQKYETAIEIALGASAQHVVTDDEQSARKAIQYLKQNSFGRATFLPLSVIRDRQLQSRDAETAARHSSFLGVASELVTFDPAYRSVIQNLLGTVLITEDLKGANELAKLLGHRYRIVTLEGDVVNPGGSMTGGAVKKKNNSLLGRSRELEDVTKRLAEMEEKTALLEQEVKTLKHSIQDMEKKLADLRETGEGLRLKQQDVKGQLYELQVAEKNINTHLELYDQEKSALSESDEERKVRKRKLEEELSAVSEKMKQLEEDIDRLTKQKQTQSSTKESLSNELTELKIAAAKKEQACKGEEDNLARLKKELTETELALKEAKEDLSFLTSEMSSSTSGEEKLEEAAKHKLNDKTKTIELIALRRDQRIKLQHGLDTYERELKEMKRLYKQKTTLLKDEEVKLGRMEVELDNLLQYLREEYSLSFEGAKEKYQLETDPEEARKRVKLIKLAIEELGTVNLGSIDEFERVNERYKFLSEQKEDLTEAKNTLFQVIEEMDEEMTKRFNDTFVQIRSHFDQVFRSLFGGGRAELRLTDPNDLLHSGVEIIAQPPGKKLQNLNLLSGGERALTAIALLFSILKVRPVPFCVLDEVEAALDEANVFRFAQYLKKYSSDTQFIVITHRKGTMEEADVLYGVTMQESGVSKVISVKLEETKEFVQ
B2: Chromosome partition protein Smc (Bacillus subtilis), P51834 (parent)
chain: B1 partner
partner: B1 chain

Variants of: B1
Settings: with smc_bacsu smc

effect of a mutation on the interaction | Variant
disrupting interaction strength | L67E
disrupting interaction strength | L60K
disrupting interaction strength | K70E

Variants of: B2
Settings: with scpa_bacsu scpA

effect of a mutation on the interaction | Variant
disrupting interaction strength | V1176E
disrupting interaction strength | I1174E

Variants of: B2
Settings: with scpa_bacsu scpA
Remark: another data set of the same source

effect of a mutation on the interaction | Variant
decreasing interaction strength | Y170E
disrupting interaction strength | V1021E

Reference: IntAct's records for PubMed 23353789
